Assay results reported in patent US20260256927A1 (Merck Sharp & Dohme, published 2026).
Where a chain is given by its changes, count along the chain named. In names and notes the source's numbering stands.

T1: IL-2Rα-Fc (Acro Biosystems, catalog #ILA-H5251) (UniProt P01589 22-217, limits assumed)
T1 construct: Bought reagent; Captured on an anti-Fc chip as SPR ligand; also called CD25; not shown: Fc part of the bought fusion
T1 sequence (looked up): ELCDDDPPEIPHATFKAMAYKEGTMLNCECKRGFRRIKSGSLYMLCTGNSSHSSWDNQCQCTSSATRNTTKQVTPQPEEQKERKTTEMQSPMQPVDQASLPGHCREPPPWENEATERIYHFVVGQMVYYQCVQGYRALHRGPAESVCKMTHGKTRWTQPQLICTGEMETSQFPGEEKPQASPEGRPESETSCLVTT

T2: IL-2Rβ-Fc (Acro Biosystems, catalog #ILB-H5253) (UniProt P14784 27-239, limits assumed)
T2 construct: Bought reagent; Captured on an anti-Fc chip as SPR ligand; also called CD122; not shown: Fc part of the bought fusion
T2 sequence (looked up): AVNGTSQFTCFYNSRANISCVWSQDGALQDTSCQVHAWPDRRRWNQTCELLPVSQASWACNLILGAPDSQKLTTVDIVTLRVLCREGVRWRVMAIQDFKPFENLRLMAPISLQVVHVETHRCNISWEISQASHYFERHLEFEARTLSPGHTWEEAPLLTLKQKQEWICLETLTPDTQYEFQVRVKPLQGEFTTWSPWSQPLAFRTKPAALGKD

B1: Ald-6HIS_K34pAMF (SP9833) conjugated to DBCO 2 x 10 kDa PEG (PEG2) (ligand)
chain: MPTSSSTKKTQLQLEHLLLDLQMILNGINNYKNPFLTRMLTFKFYMPKKATELKHLQCLEEELKPLEEVLNLAQSKNFHLRPRDLISNINVIVLELKGSETTFMCEYADETATIVEFLNRWITFSQSIISTLTGGSHHHHHH
modifications: X35 = pAMF (K34) conjugated to branched 20 kDa PEG (DBCO 2 x 10 kDa PEG, PEG2)
notes: also called SP9833 PEG2 conjugated
B2: Ald-6HIS_Y30pAMF (SP9957), unconjugated (ligand)
chain: B1 chain with Y31F, F35K
modifications: X31 = pAMF (Y30 in SEQ ID NO: 2/3 numbering)
notes: also called Aldesleukin-6His Y30TAG p-azidomethyl-L-phenylalanine
B3: Ald-6HIS_V114pAMF (SP9970) conjugated to DBCO 2 x 10 kDa PEG (PEG2) (ligand)
chain: B1 chain with F35K, V115F
modifications: X115 = pAMF (V114) conjugated to branched 20 kDa PEG (DBCO 2 x 10 kDa PEG, PEG2)
notes: also called SP9970 PEG2 conjugated
B4: Ald-6HIS_Y30pAMF (SP9957) conjugated to DBCO 2 x 10 kDa PEG (PEG2) (ligand)
chain: B1 chain with Y31F, F35K
modifications: X31 = pAMF (Y30) conjugated to branched 20 kDa PEG (DBCO 2 x 10 kDa PEG, PEG2)
notes: also called SP9957 PEG2 conjugated
B5: Ald-6HIS_S4pAMF (SP9954) conjugated to DBCO 2 x 10 kDa PEG (PEG2) (ligand)
chain: B1 chain with S5F, F35K
modifications: X5 = pAMF (S4) conjugated to branched 20 kDa PEG (DBCO 2 x 10 kDa PEG, PEG2)
notes: also called SP9954 PEG2 conjugated
B6: Ald-6HIS_V114pAMF (SP9970), unconjugated (ligand)
chain: B1 chain with F35K, V115F
modifications: X115 = pAMF (V114 in SEQ ID NO: 2/3 numbering)
notes: also called Aldesleukin-6His V114TAG p-azidomethyl-L-phenylalanine
B7: Ald-6HIS_Q73pAMF (SP9965), unconjugated (ligand)
chain: B1 chain with F35K, Q74F
modifications: X74 = pAMF (Q73 in SEQ ID NO: 2/3 numbering)
notes: also called Aldesleukin-6His Q73TAG p-azidomethyl-L-phenylalanine
B8: Ald-6HIS_S4pAMF (SP9954), unconjugated (ligand)
chain: B1 chain with S5F, F35K
modifications: X5 = p-azidomethyl-L-phenylalanine (pAMF; S4 in SEQ ID NO: 2/3 numbering)
notes: also called Aldesleukin-6His S4TAG p-azidomethyl-L-phenylalanine
B9: Ald-6HIS_R80pAMF (SP9968), unconjugated (ligand)
chain: B1 chain with F35K, R81F
modifications: X81 = pAMF (R80 in SEQ ID NO: 2/3 numbering)
notes: also called Aldesleukin-6His R80TAG p-azidomethyl-L-phenylalanine
B10: Ald-6HIS_R80pAMF (SP9968) conjugated to DBCO 2 x 10 kDa PEG (PEG2) (ligand)
chain: B1 chain with F35K, R81F
modifications: X81 = pAMF (R80) conjugated to branched 20 kDa PEG (DBCO 2 x 10 kDa PEG, PEG2)
notes: also called SP9968 PEG2 conjugated
B11: Ald-6HIS_K34pAMF (SP9833), unconjugated (ligand)
chain: B1 chain
modifications: X35 = pAMF (K34 in SEQ ID NO: 2/3 numbering)
notes: also called Aldesleukin-6His K34TAG p-azidomethyl-L-phenylalanine
B12: Aldesleukin_S4/K34/V114 pAMF (SP10774) conjugated to SC547 stump (ligand)
chain: MPTSFSTKKTQLQLEHLLLDLQMILNGINNYKNPFLTRMLTFKFYMPKKATELKHLQCLEEELKPLEEVLNLAQSKNFHLRPRDLISNINVIVLELKGSETTFMCEYADETATIFEFLNRWITFSQSIISTLT
modifications: X5, X35, X115 = pAMF (S4, K34, V114), each conjugated to SC547 (conjugation stump)
notes: also called SP10782 stump conjugate
B13: Aldesleukin_S4/Y30/K34/Q73 pAMF (SP10776) conjugated to SC547 stump (ligand)
chain: B12 chain with Y31F, Q74F, F115V
modifications: X5, X31, X35, X74 = pAMF (S4, Y30, K34, Q73), each conjugated to SC547 (conjugation stump)
notes: also called SP10784 stump conjugate
B14: Aldesleukin-6His_S4/K34/V114 pAMF (SP10683) conjugated to SC547 stump (ligand)
chain: B1 chain with S5F, V115F
modifications: X5, X35, X115 = pAMF (S4, K34, V114), each conjugated to SC547 (conjugation stump)
notes: also called SP10723 stump conjugate
B15: Aldesleukin-6His_S4/Y30/K34/V114 pAMF (SP10687) conjugated to SC547 stump (ligand)
chain: B1 chain with S5F, Y31F, V115F
modifications: X5, X31, X35, X115 = pAMF (S4, Y30, K34, V114), each conjugated to SC547 (conjugation stump)
notes: also called SP10727 stump conjugate
B16: Aldesleukin-6His_S4/Y30/K34/Q73 pAMF (SP10686) conjugated to SC547 stump (ligand)
chain: B1 chain with S5F, Y31F, Q74F
modifications: X5, X31, X35, X74 = pAMF (S4, Y30, K34, Q73), each conjugated to SC547 (conjugation stump)
notes: also called SP10726 stump conjugate
B17: Aldesleukin-6His_S4/K34/F77 pAMF (SP10682) conjugated to SC547 stump (ligand)
chain: B1 chain with S5F
modifications: X5, X35, X78 = pAMF (S4, K34, F77), each conjugated to SC547 (conjugation stump)
notes: also called SP10722 stump conjugate
B18: Aldesleukin_S4/Y30/K34 pAMF (SP10480) conjugated to SC547 stump (ligand)
chain: B12 chain with Y31F, F115V
modifications: X5, X31, X35 = pAMF (S4, Y30, K34), each conjugated to SC547 (conjugation stump)
notes: also called SP10504 stump conjugate
B19: Aldesleukin_S4/Y30/K34/V114 pAMF (SP10777) conjugated to SC547 stump (ligand)
chain: B12 chain with Y31F
modifications: X5, X31, X35, X115 = pAMF (S4, Y30, K34, V114), each conjugated to SC547 (conjugation stump)
notes: also called SP10785 stump conjugate
B20: Aldesleukin-6His_S4/Y30/K34/R80 pAMF F41K (SP10688) conjugated to SC547 stump (ligand)
chain: B1 chain with S5F, Y31F, F42K, R81F
modifications: X5, X31, X35, X81 = pAMF (S4, Y30, K34, R80), each conjugated to SC547 (conjugation stump)
notes: also called SP10728 stump conjugate
B21: Aldesleukin-6His_S4/Y30/K34 pAMF F41K (SP10684) conjugated to SC547 stump (ligand)
chain: B1 chain with S5F, Y31F, F42K
modifications: X5, X31, X35 = pAMF (S4, Y30, K34), each conjugated to SC547 (conjugation stump)
notes: also called SP10724 stump conjugate
B22: SP10725 (Aldesleukin-6His_S4/Y30/K34/R80 pAMF conjugated to SC579) (ligand)
chain: B1 chain with S5F, Y31F, R81F
modifications: X5, X31, X35, X81 = pAMF (S4, Y30, K34, R80), each conjugated to SC579 (releasable 20 kDa mPEG Fmoc-DBCO linker)
notes: also called SP10725 PEG conjugate
B23: SP10728 (Aldesleukin-6His_S4/Y30/K34/R80 pAMF F41K conjugated to SC579) (ligand)
chain: B1 chain with S5F, Y31F, F42K, R81F
modifications: X5, X31, X35, X81 = pAMF (S4, Y30, K34, R80), each conjugated to SC579 (releasable 20 kDa mPEG Fmoc-DBCO linker)
notes: also called SP10728 PEG conjugate
B24: SP10724 (Aldesleukin-6His_S4/Y30/K34 pAMF F41K conjugated to SC579) (ligand)
chain: B1 chain with S5F, Y31F, F42K
modifications: X5, X31, X35 = pAMF (S4, Y30, K34), each conjugated to SC579 (releasable 20 kDa mPEG Fmoc-DBCO linker)
notes: also called SP10724 PEG conjugate

These binders were tested against T1, IL-2Rα-Fc (Acro Biosystems, catalog …) (assay: SPR (Biacore T200), kinetic; receptor-Fc captured on anti-Fc CM5 chip, IL-2 variant as analyte; conjugated to DBCO 2 x 10 kDa PEG (PEG2)).
Experimental: (§1) Anti-Fc polyclonal antibodies were immobilized onto a CM5 chip (GE Life Sciences) using amine coupling chemistry (from Amine Coupling Kit, GE Life Sciences). The immobilization steps were carried out at a flow rate of 25 μL/minute in 1×HBS-EP+ buffer (GE Life Sciences; 10× Stock diluted before use). The sensor surfaces were activated for 7 minutes with a mixture of NHS (0.05 M) and EDC (0.2 M). The anti-Fc antibodies were injected over all four flow cells at a concentration of 25 μg/mL in 10 mM sodium acetate, pH 4.5, for seven minutes. Ethanolamine (1 M, pH 8.5) was injected for seven minutes to block any remaining activated groups.
(§2) Kinetic binding experiments were performed at 25° C. using 1×HBS-EP+ with 0.05% BSA buffer. IL-2Rα-Fc or IL-2Rβ-Fc (Acro Biosystems, catalog #ILA-H5251, ILB-H5253) was injected over the anti-Fc surface at concentrations of 3-10 μg/mL for 12 seconds at a flow rate of 10 μL/minute on flow cells 2, 3 and 4, followed by a buffer wash for 30 seconds at the same flow rate. Kinetic characterization of conjugated or unconjugated aldesleukin or variants was carried out in a range of concentrations from 1 nM-10 μM and one injection of no antigen. After capturing ligand (IL-2Rα-Fc or IL-2Rβ-Fc) on the anti-Fc surface, the analyte (IL-2 variant) was bound for 60 seconds, followed by a 180 second dissociation phase at a flow rate of 50 μL/min. […]

Row | Kd [nM] | Binder
1 | 800 | B1

These binders were tested against T1, IL-2Rα-Fc (Acro Biosystems, catalog …) (assay: SPR (Biacore T200), kinetic; receptor-Fc captured on anti-Fc CM5 chip, IL-2 variant as analyte).
Experimental: as §1
(§3) Kinetic binding experiments were performed at 25° C. using 1×HBS-EP+ with 0.05% BSA buffer. IL-2Rα-Fc or IL-2Rβ-Fc (Acro Biosystems, catalog #ILA-H5251, ILB-H5253) was injected over the anti-Fc surface at concentrations of 3-10 μg/mL for 12 seconds at a flow rate of 10 μL/minute on flow cells 2, 3 and 4, followed by a buffer wash for 30 seconds at the same flow rate. Kinetic characterization of conjugated or unconjugated aldesleukin or variants was carried out in a range of concentrations from 1 nM-10 μM and one injection of no antigen. After capturing ligand (IL-2Rα-Fc or IL-2Rβ-Fc) on the anti-Fc surface, the analyte (IL-2 variant) was bound for 60 seconds, followed by a 180 second dissociation phase at a flow rate of 50 μL/min. Between each ligand capture and analyte binding cycle, regeneration was carried out using two injections of 10 mM Glycine pH 1.5 for 30 seconds at 30 μL/minute, followed by a 30 second buffer wash step.

Row | Kd [nM] | Binder
2 | 9 | B2
3 | 500 | B3
4 | 300 | B4
5 | 100 | B5
6 | 50 | B6
7 | 7 | B7
8 | 8 | B8
9 | 20 | B9
10 | 100 | B10

These binders were tested against T2, IL-2Rβ-Fc (Acro Biosystems, catalog …) in the same assay as above.
Experimental: as §1, §3

Row | Kd [nM] | Binder
11 | 200 | B2
12 | 300 | B6
13 | 80 | B7
14 | 300 | B8
15 | 400 | B9
16 | 300 | B11

What follows are binders tested against T1, IL-2Rα-Fc (Acro Biosystems, catalog …) (assay: SPR, kinetic binding to IL-2 receptor).

Row | Kd [nM] | Binder
17 | 100 | B12
18 | 9 | B13
19 | 300 | B14
20 | 100 | B15
21 | 30 | B16
22 | 40 | B17

The binders below were run against T2, IL-2Rβ-Fc (Acro Biosystems, catalog …) (assay: SPR, kinetic binding to IL-2 receptor).

Row | Kd [nM] | Binder
23 | 700 | B18
24 | 500 | B12
25 | 300 | B13
26 | 200 | B19
27 | 2000 | B14
28 | 1000 | B15
29 | 600 | B16
30 | 2000 | B20
31 | 3000 | B17
32 | 3000 | B21

What follows are binders tested against T1, IL-2Rα-Fc (Acro Biosystems, catalog …) (assay: SPR (Biacore T200), kinetic; receptor-Fc captured on anti-Fc CM5 chip, IL-2 variant as analyte; unconjugated (pAMF incorporated, no PEG)).
Experimental: as §1, §2

Row | Kd [nM] | Binder
33 | 7 | B11

Each binder was assayed against T1, IL-2Rα-Fc (Acro Biosystems, catalog …) (assay: SPR, receptor-Fc captured on anti-Fc chip).

Row | binding result | Binder
34 | no binding | B22
35 | no binding | B23
36 | no binding | B24
